Legend:
[1] = molecular target: c-Src SH2; test: SH2 binding enrichment of the phosphorylated peptide, bacterial display (enrichment ratio); higher = better substrate or ligand; peptides without Tyr show the background
[2] = molecular target: Grb2 SH2 (UniProt P62993); test: as above
[3] = molecular target: SHP2-C SH2; test: as above
[4] = molecular target: MERTK (UniProt Q12866); test: phosphorylation enrichment, bacterial display (enrichment ratio); higher = better substrate or ligand; peptides without Tyr show the background
[5] = molecular target: Jak2 (UniProt O60674); test: as above
[6] = tested on: c-Abl (mouse); test: as above
[7] = molecular target: FGFR3 (UniProt P22607); test: as above
[8] = molecular target: Hck (UniProt P08631); test: as above
[9] = tested on: AncSZ; test: as above
[10] = tested on: c-Src; test: as above
[11] = molecular target: Fyn (UniProt P06241); test: as above
[12] = molecular target: EPHB1 (UniProt P54762); test: as above
[13] = molecular target: EPHB2 (UniProt P29323); test: as above
[14] = molecular target: FGFR1 (UniProt P11362); test: as above
[15] = tested on: Fer (mouse); test: as above
[16] = molecular target: Fes (UniProt P07332); test: as above
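Throughout, for SH2 binding enrichment of the phosphorylated peptide, bacterial display: peptide library displayed on the E. coli surface as eCPX fusions, selected cells deep-sequenced, score is each peptide's frequency after selection divided by its frequency in the input.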
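Throughout, for phosphorylation enrichment, bacterial display: 11-residue human phosphosite peptides and single-mutation variants displayed on the E. coli surface, counted by deep sequencing, each peptide's frequency after selection divided by its frequency in the unselected input library; frequency after pTyr selection over input frequency; kinase dosed for 20-30% of maximal phosphorylation in three min.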

Chain of Hck (P08631 whole entry, looked up): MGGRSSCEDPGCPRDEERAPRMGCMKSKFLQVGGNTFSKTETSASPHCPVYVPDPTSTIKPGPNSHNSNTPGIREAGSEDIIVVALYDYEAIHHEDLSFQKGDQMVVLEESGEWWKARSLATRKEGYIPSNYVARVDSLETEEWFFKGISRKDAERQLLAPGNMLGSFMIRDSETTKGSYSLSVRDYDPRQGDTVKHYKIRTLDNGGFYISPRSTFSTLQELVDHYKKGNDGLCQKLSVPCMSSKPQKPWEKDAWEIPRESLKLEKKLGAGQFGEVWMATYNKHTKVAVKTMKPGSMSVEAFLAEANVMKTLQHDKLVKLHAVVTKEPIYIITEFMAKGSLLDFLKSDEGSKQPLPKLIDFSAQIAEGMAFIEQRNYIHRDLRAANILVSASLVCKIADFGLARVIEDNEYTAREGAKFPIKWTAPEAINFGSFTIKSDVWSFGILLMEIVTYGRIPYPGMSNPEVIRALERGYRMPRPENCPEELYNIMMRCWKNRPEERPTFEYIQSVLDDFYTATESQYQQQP
Chain of Fyn (P06241 whole entry, looked up): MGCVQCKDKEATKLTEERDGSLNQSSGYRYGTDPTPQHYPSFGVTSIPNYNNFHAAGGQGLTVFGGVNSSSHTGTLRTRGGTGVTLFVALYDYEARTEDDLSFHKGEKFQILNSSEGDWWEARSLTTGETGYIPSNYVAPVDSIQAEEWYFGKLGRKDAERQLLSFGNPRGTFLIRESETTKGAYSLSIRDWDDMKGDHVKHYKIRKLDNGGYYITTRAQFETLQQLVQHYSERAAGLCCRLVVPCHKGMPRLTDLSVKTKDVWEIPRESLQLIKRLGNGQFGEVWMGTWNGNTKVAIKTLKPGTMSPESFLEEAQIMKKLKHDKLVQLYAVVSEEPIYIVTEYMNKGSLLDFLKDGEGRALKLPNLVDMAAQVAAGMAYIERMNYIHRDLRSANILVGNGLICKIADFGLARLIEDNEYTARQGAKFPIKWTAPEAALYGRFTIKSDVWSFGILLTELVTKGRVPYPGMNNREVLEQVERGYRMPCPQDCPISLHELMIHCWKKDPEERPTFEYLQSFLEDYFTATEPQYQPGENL
Chain of EPHB2 (P29323 whole entry, looked up): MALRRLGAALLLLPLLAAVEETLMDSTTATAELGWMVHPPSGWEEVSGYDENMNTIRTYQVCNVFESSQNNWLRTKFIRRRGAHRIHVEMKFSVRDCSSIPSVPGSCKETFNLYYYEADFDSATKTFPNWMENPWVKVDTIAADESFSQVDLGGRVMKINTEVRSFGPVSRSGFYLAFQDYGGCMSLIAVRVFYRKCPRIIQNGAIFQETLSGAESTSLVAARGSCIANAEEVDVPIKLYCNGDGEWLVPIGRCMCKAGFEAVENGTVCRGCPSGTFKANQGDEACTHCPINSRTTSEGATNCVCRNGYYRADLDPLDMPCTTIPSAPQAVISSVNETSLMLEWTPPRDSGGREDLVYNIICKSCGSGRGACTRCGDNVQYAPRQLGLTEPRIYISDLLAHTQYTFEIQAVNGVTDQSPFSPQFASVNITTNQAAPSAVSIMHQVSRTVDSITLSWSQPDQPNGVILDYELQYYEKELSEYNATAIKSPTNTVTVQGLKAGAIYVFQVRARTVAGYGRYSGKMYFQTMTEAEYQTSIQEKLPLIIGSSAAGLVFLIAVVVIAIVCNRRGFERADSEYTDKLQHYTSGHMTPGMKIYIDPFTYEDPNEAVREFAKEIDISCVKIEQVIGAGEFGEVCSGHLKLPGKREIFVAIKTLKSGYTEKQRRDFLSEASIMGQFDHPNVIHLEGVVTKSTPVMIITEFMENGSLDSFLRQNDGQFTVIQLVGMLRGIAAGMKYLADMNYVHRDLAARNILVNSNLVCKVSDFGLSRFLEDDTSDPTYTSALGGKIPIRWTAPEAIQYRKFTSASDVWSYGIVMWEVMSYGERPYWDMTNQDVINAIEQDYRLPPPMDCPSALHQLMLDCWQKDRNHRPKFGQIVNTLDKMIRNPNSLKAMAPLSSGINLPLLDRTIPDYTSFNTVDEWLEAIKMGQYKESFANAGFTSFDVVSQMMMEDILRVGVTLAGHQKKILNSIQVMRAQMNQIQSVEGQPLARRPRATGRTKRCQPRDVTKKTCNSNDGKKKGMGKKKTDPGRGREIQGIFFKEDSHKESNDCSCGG
Chain of FGFR1 (P11362 whole entry, looked up): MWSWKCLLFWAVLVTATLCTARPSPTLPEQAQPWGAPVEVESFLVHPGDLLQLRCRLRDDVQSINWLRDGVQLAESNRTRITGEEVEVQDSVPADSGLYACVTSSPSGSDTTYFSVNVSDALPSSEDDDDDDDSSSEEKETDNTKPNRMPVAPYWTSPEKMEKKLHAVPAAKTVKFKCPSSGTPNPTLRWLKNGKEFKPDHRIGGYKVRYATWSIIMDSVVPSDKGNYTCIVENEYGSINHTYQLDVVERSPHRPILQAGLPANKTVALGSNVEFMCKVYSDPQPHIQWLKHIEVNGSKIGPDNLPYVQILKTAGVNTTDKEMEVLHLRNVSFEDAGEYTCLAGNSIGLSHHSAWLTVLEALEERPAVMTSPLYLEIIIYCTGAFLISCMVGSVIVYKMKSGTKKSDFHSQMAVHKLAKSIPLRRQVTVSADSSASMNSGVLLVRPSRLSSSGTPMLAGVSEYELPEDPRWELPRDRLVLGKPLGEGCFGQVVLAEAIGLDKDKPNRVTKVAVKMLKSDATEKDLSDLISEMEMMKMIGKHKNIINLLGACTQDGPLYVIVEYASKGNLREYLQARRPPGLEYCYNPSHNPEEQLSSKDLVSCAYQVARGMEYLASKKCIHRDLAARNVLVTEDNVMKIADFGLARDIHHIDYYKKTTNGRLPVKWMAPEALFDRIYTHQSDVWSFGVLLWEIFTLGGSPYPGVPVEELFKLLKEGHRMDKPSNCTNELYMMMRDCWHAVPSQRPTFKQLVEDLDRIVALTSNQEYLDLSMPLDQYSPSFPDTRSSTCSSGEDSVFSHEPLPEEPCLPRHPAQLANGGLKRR
Chain of FGFR3 (P22607 whole entry, looked up): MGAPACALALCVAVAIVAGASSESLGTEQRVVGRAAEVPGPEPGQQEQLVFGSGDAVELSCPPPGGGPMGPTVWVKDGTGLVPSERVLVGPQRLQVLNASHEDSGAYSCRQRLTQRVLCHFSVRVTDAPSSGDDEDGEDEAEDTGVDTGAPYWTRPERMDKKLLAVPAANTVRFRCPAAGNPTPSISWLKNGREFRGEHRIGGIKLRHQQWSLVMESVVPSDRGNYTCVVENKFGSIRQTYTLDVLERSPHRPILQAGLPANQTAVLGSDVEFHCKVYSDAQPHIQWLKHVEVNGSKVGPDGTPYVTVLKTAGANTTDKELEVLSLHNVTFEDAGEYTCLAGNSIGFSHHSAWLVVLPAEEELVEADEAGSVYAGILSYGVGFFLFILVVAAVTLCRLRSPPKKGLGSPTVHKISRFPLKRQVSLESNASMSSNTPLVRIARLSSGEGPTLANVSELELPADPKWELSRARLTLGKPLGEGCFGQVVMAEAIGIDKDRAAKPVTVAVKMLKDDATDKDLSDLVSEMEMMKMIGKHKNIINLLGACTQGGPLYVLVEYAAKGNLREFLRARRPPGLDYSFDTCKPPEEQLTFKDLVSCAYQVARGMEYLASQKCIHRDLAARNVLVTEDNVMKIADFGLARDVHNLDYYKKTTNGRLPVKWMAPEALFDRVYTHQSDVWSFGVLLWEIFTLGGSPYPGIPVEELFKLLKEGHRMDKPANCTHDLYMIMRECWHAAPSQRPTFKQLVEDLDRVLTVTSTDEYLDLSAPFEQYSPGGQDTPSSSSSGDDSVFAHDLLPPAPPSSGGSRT
Chain of Grb2 SH2 (P62993 whole entry, looked up): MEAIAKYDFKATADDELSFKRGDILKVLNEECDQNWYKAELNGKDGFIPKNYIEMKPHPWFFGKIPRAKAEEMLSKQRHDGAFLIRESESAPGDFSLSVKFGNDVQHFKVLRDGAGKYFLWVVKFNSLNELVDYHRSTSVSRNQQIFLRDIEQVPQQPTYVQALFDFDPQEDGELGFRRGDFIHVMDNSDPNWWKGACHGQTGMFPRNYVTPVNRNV
Chain of EPHB1 (P54762 whole entry, looked up): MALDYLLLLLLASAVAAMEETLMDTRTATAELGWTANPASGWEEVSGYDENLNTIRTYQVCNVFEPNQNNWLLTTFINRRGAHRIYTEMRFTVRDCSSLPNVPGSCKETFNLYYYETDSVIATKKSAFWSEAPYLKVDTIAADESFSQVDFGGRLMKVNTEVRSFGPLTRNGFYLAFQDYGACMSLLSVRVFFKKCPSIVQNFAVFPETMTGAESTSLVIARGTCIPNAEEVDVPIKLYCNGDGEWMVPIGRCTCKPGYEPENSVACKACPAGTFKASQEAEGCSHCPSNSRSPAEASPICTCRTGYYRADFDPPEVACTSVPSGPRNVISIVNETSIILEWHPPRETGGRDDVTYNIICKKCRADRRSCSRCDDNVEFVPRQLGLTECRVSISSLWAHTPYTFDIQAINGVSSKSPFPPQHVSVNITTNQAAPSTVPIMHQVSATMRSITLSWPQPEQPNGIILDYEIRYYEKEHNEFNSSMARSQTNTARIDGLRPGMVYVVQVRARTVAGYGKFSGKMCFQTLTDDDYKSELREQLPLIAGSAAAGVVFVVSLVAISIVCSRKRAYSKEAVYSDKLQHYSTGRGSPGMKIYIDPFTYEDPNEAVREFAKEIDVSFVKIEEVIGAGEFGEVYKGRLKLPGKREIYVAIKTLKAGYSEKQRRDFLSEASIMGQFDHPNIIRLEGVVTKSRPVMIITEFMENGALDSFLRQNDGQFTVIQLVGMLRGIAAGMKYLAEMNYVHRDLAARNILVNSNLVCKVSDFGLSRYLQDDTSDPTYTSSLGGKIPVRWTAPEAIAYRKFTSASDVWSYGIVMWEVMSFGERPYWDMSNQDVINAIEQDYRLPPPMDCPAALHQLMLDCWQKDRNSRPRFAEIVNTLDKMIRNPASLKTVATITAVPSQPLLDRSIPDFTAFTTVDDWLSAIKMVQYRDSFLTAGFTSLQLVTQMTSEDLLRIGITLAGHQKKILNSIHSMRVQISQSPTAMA

Row | Sequence | SH2 binding enrichment [1] | SH2 binding enrichment [2] | SH2 binding enrichment [3] | phosphorylation enrichment [4] | phosphorylation enrichment [5] | phosphorylation enrichment [6] | phosphorylation enrichment [7] | phosphorylation enrichment [8] | phosphorylation enrichment [9] | phosphorylation enrichment [10] | phosphorylation enrichment [11] | phosphorylation enrichment [12] | phosphorylation enrichment [13] | phosphorylation enrichment [14] | phosphorylation enrichment [15] | phosphorylation enrichment [16]
1 | LNPLIYTLRNA [OR4C46_Y285_K288R] | 0.521 | 0.798 | 0.738 | 1.97 | 1.31 | 1.76 | 0.863 | 7.15 | 1.79 | 6.62 | 4.69 | 0.576 | 0.9 | 0.922 | 1.03 | 1.12
2 | LNPVVYTLRNA [OR4C12_Y285] | 0.629 | 0.77 | 1.37 | 0.971 | 1.5 | 1.2 | 0.69 | 1.27 | 1.26 | 1.92 | 0.635 | 0.761 | 0.636 | 0.593 | 0.856 | 1.09
3 | LPQDGYRIVQH [PTPRT_Y1329_R1324L] | 0.44 | 0.727 | 0.708 | 0.361 | 0.575 | 0.716 | 0.55 | 0.418 | 0.672 | 0.346 | 0.43 | 0.402 | 0.423 | 0.403 | 0.408 | 0.809
4 | LQEQNYPAVDS [FAM114A1_Y115_L116P] | 0.655 | 0.698 | 0.508 | 0.81 | 1.54 | 1.13 | 1.54 | 0.739 | 2.01 | 0.699 | 0.92 | 1.37 | 1.26 | 0.988 | 0.878 | 1.86
5 | LQTYRYHGHSM [PDHA1_Y289] | 0.561 | 0.879 | 0.646 | 0.698 | 0.569 | 0.411 | 0.395 | 0.288 | 0.52 | 0.285 | 0.414 | 0.489 | 0.337 | 0.323 | 0.455 | 0.513
6 | LRAGVYHEKDQ [DNM2_Y626_P627H] | 0.445 | 0.92 | 0.657 | 0.491 | 1.08 | 0.877 | 0.763 | 0.605 | 0.735 | 0.617 | 0.608 | 0.629 | 0.451 | 0.635 | 0.509 | 1.29
7 | LRFDSYSSFCN [SLC20A2_Y433_YF] | 0.519 | 0.805 | 0.612 | 0.479 | 1.37 | 0.833 | 1.1 | 0.687 | 1.54 | 0.642 | 0.464 | 0.736 | 0.734 | 0.703 | 0.617 | 1.52
8 | LRRFIYRPPDR [OTOF_Y1231] | 0.725 | 0.538 | 0.504 | 0.824 | 0.809 | 0.485 | 0.656 | 0.854 | 0.825 | 0.954 | 0.678 | 0.529 | 0.656 | 0.808 | 0.583 | 1.18
9 | LSSNLYFRWLT [CNGA3_Y168_P163L_YF] | 0.531 | 0.655 | 1.01 | 4.32 | 5.07 | 1.79 | 1.51 | 1.73 | 1.76 | 1.21 | 0.595 | 0.783 | 0.749 | 1.15 | 1.01 | 1.64
10 | LTPVKYLLSAT [GSDMC_Y26] | 0.537 | 1.08 | 1.05 | 0.425 | 0.433 | 0.593 | 0.508 | 0.429 | 0.515 | 0.345 | 0.396 | 0.585 | 0.412 | 0.46 | 0.282 | 0.616
11 | LWEGSYGKVKE [STK11_Y60_G56W] | 0.507 | 0.645 | 1.21 | 0.509 | 1.08 | 0.69 | 0.77 | 0.678 | 0.872 | 0.721 | 0.623 | 0.476 | 0.491 | 0.587 | 0.647 | 2.28
12 | LYYYSYLLKNH [PTEN_Y180_V175L] | 0.666 | 1.05 | 1.23 | 4.98 | 2.46 | 1.97 | 3.79 | 1.49 | 1.64 | 1.06 | 0.946 | 3.44 | 1.65 | 4.27 | 0.959 | 1.3
13 | MARDIYQASFF [LTK_Y672_R673Q_YF] | 0.466 | 0.972 | 0.678 | 5.44 | 0.992 | 5.43 | 0.564 | 7.31 | 0.966 | 6.07 | 6.4 | 2.15 | 1.7 | 0.679 | 3.26 | 0.887
14 | MDFRSYPREFG [RBM10_Y44_YF] | 0.578 | 1.09 | 0.975 | 0.352 | 0.63 | 0.455 | 0.511 | 0.388 | 0.606 | 0.431 | 0.366 | 0.437 | 0.454 | 0.529 | 0.366 | 0.858
15 | MEVGQYFFVKC [CYBB_Y324_I325F] | 0.44 | 0.716 | 0.61 | 1.13 | 2.56 | 1.39 | 4.7 | 0.719 | 2.28 | 0.667 | 0.551 | 0.861 | 0.8 | 4.99 | 0.801 | 1.69
16 | MFCAGYDTKQE [F10_Y407] | 0.495 | 0.65 | 0.727 | 0.48 | 1.38 | 0.793 | 0.877 | 0.632 | 1.11 | 0.584 | 0.539 | 0.81 | 0.805 | 0.518 | 0.652 | 1.47
17 | MIHSAYALGGL [CPS1_Y590_R587H] | 0.716 | 0.883 | 0.64 | 0.409 | 0.502 | 0.373 | 0.471 | 0.464 | 0.53 | 0.489 | 0.566 | 0.36 | 0.428 | 0.388 | 0.626 | 0.592

Row | Sequence | SH2 binding enrichment [1] | SH2 binding enrichment [2] | SH2 binding enrichment [3] | phosphorylation enrichment [4] | phosphorylation enrichment [5] | phosphorylation enrichment [6] | phosphorylation enrichment [7] | phosphorylation enrichment [8] | phosphorylation enrichment [9] | phosphorylation enrichment [10] | phosphorylation enrichment [11] | phosphorylation enrichment [12] | phosphorylation enrichment [13] | phosphorylation enrichment [14] | phosphorylation enrichment [15] | phosphorylation enrichment [16]
18 | MIRSAYALRGL [CPS1_Y590_G593R] | 0.408 | 0.731 | 0.6 | 0.423 | 0.543 | 0.502 | 0.527 | 0.491 | 0.669 | 0.474 | 0.39 | 0.434 | 0.448 | 0.474 | 0.409 | 0.628
19 | MKGDFYCFLAE [YWHAG_Y131_R132C_YF] | 0.54 | 0.725 | 0.742 | 2.81 | 1.29 | 0.971 | 1.5 | 0.695 | 1.32 | 0.592 | 0.456 | 1.18 | 0.88 | 1.02 | 0.644 | 1.58
20 | MKGDYYCYLAE [YWHAG_Y131_R132C] | 1.36 | 0.789 | 0.779 | 5.47 | 5.78 | 1.85 | 9.01 | 1.48 | 3 | 2.49 | 2.16 | 5.59 | 5.89 | 11.4 | 1.07 | 1.5
21 | MPLTKYLKRIK [CNGB3_Y200_E199K] | 0.834 | 1.27 | 1.03 | 0.431 | 0.477 | 0.498 | 0.488 | 0.534 | 0.641 | 0.391 | 0.377 | 0.425 | 0.377 | 0.472 | 0.425 | 0.623
22 | MPVDGYISGLL [PAK6_Y81] | 0.511 | 0.903 | 0.661 | 0.41 | 0.817 | 0.622 | 0.626 | 0.441 | 0.716 | 0.487 | 0.524 | 0.447 | 0.59 | 0.583 | 0.522 | 0.953
23 | MRTMGYMPTEM [CABP5_Y62] | 0.407 | 0.789 | 1.08 | 0.344 | 0.507 | 0.447 | 0.538 | 0.456 | 0.683 | 0.355 | 0.388 | 0.428 | 0.509 | 0.63 | 0.459 | 0.732
24 | MSNVPYVMNRG [ACAT1_Y161] | 0.399 | 0.919 | 0.657 | 0.474 | 0.572 | 0.527 | 0.594 | 0.399 | 0.734 | 0.478 | 0.426 | 0.368 | 0.421 | 0.464 | 0.377 | 0.619
25 | MSRNLYSGDFF [DDR2_Y736_YF] | 0.773 | 0.83 | 0.611 | 9.92 | 0.655 | 0.797 | 2.16 | 5.38 | 0.825 | 4.14 | 5.54 | 7.35 | 10 | 2.41 | 1.57 | 0.98
26 | MTYVFYRENLR [NLRP14_Y443] | 0.72 | 1.24 | 1.22 | 0.514 | 1.48 | 0.791 | 0.967 | 1.03 | 1.64 | 1.36 | 0.823 | 1.03 | 0.741 | 0.653 | 0.521 | 1.4
27 | NAGDFYDLFGG [PTPN11_Y63_T59A_YF] | 0.497 | 0.642 | 0.635 | 2.72 | 0.971 | 0.762 | 0.769 | 3.55 | 1.11 | 6.02 | 5.68 | 0.651 | 0.564 | 0.455 | 2.43 | 1.16
28 | NAMRRYIEEFQ [MNS1_Y244] | 0.452 | 0.847 | 0.585 | 0.346 | 0.516 | 0.541 | 0.501 | 0.413 | 0.734 | 0.347 | 0.371 | 0.352 | 0.459 | 0.458 | 0.417 | 0.819
29 | NCLRQYVAGRF [CRB1_Y711_E710Q] | 0.299 | 0.709 | 0.571 | 0.456 | 0.62 | 0.576 | 0.467 | 0.337 | 0.993 | 0.444 | 0.477 | 0.39 | 0.492 | 0.382 | 0.367 | 0.646
30 | NDDDVYLSLEE [VAV2_Y142_R143L] | 0.477 | 0.834 | 0.616 | 0.507 | 1.54 | 1.05 | 0.984 | 0.721 | 1.49 | 0.804 | 0.706 | 0.793 | 0.627 | 0.725 | 0.656 | 1.48
31 | NDPMEYAKQHG [ASS1_Y163_L160P] | 0.457 | 0.804 | 0.545 | 0.465 | 0.86 | 0.718 | 0.527 | 0.467 | 0.769 | 0.396 | 0.389 | 0.419 | 0.485 | 0.415 | 0.426 | 0.876
32 | NETNKYQISVN [FGB_Y368_A365T] | 0.432 | 0.889 | 0.581 | 0.418 | 0.684 | 0.57 | 0.575 | 0.412 | 0.653 | 0.329 | 0.415 | 0.427 | 0.46 | 0.411 | 0.375 | 0.709
33 | NFFEFYVDDPL [GCHFR_Y48_P53L_YF] | 0.485 | 0.686 | 0.585 | 0.413 | 1.07 | 0.78 | 0.874 | 0.439 | 1.09 | 0.489 | 0.436 | 0.773 | 0.52 | 0.501 | 0.428 | 1.11

Reference: the supplement of paper PMC10065799, “High-throughput profiling of sequence recognition by tyrosine kinases and SH2 domains using bacterial peptide display” (eLife, 2023)
